Assay results taken from US20240116985A1, “STAPLED PEPTIDES AND METHODS THEREOF” (priority 2020, published 2024).
Starred links: 1 amine or outer side, 2 acyl side, 3 side chain; linkers in the order of their positions; H or OH if unused. Positions of bridges follow the written chain, without caps; N, C: chain ends. Non-standard residues stand in square brackets, D forms with d. Primed or numbered codes have the meaning given here. PyrS2″ = (S)-3-amino-1-((pent-4-en-1-yloxy)carbonyl)pyrrolidine-3-carboxylic acid (stapling residue), C=CCCCOC(=O)N1CC[C@@](N[*:1])(C(=O)[*:2])C1; B5(24) = 2-amino-2-(pent-4-en-1-yl)hept-6-enoic acid, 2,2-bis(4-pentenyl)glycine (stitching residue), C=CCCCC(CCCC=C)(N[*:1])C(=O)[*:2]; B5(4) = 2,2-bis(4-pentenyl)glycine = 2-amino-2-(pent-4-en-1-yl)hept-6-enoic acid (stitching residue), C=CCCCC(CCCC=C)(N[*:1])C(=O)[*:2]; B5(5) = 2,2-bis(4-pentenyl)glycine, 2-amino-2-(pent-4-en-1-yl)hept-6-enoic acid (stitching residue), C=CCCCC(CCCC=C)(N[*:1])C(=O)[*:2]; TfeGA = (S)-2-amino-3-((carboxymethyl)(2,2,2-trifluoroethyl)amino)propanoic acid, O=C([C@H](CN(CC(=O)[*:3])CC(F)(F)F)N[*:1])[*:2]; B5 = 2-amino-2-(pent-4-en-1-yl)hept-6-enoic acid, C=CCCCC(CCCC=C)(N[*:1])C(=O)[*:2]; Phe(2-Cl) = N[C@@H](Cc1ccccc1Cl)C(=O)O; Bta = N[C@@H](Cc1csc2ccccc12)C(=O)O; αAllylPro = C=CC[C@@]1(C(=O)O)CCCN1; tBuAla = CC(C)(C)C[C@H](N)C(=O)O; 3Thi = N[C@@H](Cc1ccsc1)C(=O)O; Cha = N[C@@H](CC1CCCCC1)C(=O)O; S8 = C=CCCCCCC[C@](C)(N)C(=O)O; hLeu = CC(C)CC[C@H](N)C(=O)O; hSer = N[C@@H](CCO)C(=O)O; Abu = CC[C@H](N)C(=O)O

What follows are binders tested against full-length beta-Catenin (Uniprot ID P35222) (Homo sapiens (Human)) (UniProt P35222) (assay: fluorescence polarization competition; displacement of 5FAM-TCF4(10-53) from full-length beta-catenin).
Target sequence in this assay (P35222 whole entry, one chain of several): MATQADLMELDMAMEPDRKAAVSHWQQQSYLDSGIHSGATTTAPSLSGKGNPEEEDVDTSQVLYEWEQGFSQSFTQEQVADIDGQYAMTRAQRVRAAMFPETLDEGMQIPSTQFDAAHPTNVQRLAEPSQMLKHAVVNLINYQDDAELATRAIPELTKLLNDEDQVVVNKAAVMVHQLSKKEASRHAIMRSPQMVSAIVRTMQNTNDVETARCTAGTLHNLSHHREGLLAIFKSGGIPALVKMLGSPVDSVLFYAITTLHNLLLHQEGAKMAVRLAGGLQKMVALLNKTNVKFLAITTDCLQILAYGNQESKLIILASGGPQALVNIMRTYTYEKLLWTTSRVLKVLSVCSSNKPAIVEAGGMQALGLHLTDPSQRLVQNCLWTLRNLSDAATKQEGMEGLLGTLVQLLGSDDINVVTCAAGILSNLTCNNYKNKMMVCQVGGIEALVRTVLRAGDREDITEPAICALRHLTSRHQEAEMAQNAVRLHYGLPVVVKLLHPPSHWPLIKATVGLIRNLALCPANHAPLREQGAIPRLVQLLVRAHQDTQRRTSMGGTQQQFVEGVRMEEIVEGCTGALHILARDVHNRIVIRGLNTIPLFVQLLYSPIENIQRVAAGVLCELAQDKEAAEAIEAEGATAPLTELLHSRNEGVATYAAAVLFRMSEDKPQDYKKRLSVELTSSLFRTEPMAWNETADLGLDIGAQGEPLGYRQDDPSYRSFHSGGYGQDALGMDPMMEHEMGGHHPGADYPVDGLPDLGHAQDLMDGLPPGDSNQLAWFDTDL

EC50 | Binder
73 nM | Ac-[αAllylPro]D[Abu][B5(4)]DEAAFQ[S8]F[Bta]Q-NH2 (staple 1-4, 4-11) [I-568]
42 nM | Ac-[αAllylPro]D[Abu][B5(4)]DEAAFQ[S8]F[Bta]Q-NH2 (staple 1-4, 4-11) [I-569]
56 nM | Ac-[αAllylPro]D[Abu][B5(4)]DEAAFQ[S8]F[Bta]H-NH2 (staple 1-4, 4-11) [I-570]

These binders were tested against Bcat-Halo (UniProt P35222) (assay: NanoBRET Abs IC50 in HEK293 cells; competitor TCF4-Luc on Bcat-Halo).
Sequence of Bcat-Halo (P35222 whole entry): as the sequence (P35222 whole entry, one chain of several) above

IC50 | Binder
21500 nM | Ac-[αAllylPro]D[Cha][B5(4)]DDALFS[PyrS2″][Phe(2-Cl)][Bta]Q-NH2 (staple 1-4, 4-11) [I-1148]
21400 nM | Ac-[αAllylPro]D[Cha][B5(4)]DDLAFT[PyrS2″][Phe(2-Cl)][Bta]S-NH2 (staple 1-4, 4-11) [I-1150]
19800 nM | Ac-[αAllylPro]D[Cha][B5(24)]DDAAFS[PyrS2″][Phe(2-Cl)][Bta]L-NH2 (staple 1-4, 4-11) [I-1138]
12000 nM | Ac-[αAllylPro]D[Cha][B5(24)]DDAAFS[PyrS2″][Phe(2-Cl)][Bta][hSer]-NH2 (staple 1-4, 4-11) [I-1137]
18000 nM | Ac-[αAllylPro]D[Cha][B5(24)]DDAAFL[PyrS2″][Phe(2-Cl)][Bta]T-NH2 (staple 1-4, 4-11) [I-1139]
14200 nM | Ac-[αAllylPro]D[Cha][B5(4)]DDLLFT[PyrS2″][Phe(2-Cl)][Bta]S-NH2 (staple 1-4, 4-11) [I-1152]
32500 nM | Ac-[αAllylPro]D[Cha][B5(4)]DDAAFL[PyrS2″][Phe(2-Cl)][Bta][dT]-NH2 (staple 1-4, 4-11) [I-1140]
25300 nM | Ac-[αAllylPro]D[Cha][B5(4)]DDALFT[PyrS2″][Phe(2-Cl)][Bta]S-NH2 (staple 1-4, 4-11) [I-1151]
21100 nM | Ac-[αAllylPro]D[Cha][B5(4)]DDLAFS[PyrS2″][Phe(2-Cl)][Bta]Q-NH2 (staple 1-4, 4-11) [I-1147]

Each binder was assayed against full-length beta-Catenin (Uniprot ID P35222) (Homo sapiens (Human)) (UniProt P35222) (assay: competition fluorescence polarization; full-length beta-catenin, 5FAM-TCF4(10-53) probe as competitor).
Target sequence in this assay (P35222 whole entry, one chain of several): as above

IC50 | Binder
21 nM | Ac-[αAllylPro]D[Abu][B5]DDAAFN[S8]F[Bta]H-NH2 (staple 1-4, 4-11) [I-575]
69 nM | Ac-[αAllylPro]D[hLeu][B5(5)]DDAAFN[S8]F[Bta]H-NH2 (staple 1-4, 4-11; also: staple isomer, earlier eluting HPLC peak) [I-583]
73 nM | Ac-[αAllylPro]D[Abu][B5(4)]DEAAFQ[S8]F[Bta]Q-NH2 (staple 1-4, 4-11) [I-568]
42 nM | Ac-[αAllylPro]D[Abu][B5(4)]DEAAFQ[S8]F[Bta]Q-NH2 (staple 1-4, 4-11) [I-569]
33 nM | Ac-[αAllylPro]D[hLeu][B5(5)]DDAAFN[S8]F[Bta]H-NH2 (staple 1-4, 4-11) [I-584]
56 nM | Ac-[αAllylPro]D[Abu][B5(4)]DEAAFQ[S8]F[Bta]H-NH2 (staple 1-4, 4-11) [I-570]

These binders were tested against full-length beta-Catenin (Uniprot ID P35222) (Homo sapiens (Human)) (UniProt P35222) (assay: fluorescence polarization competition vs 5FAM-TCF4(10-53) on full-length beta-catenin).
Target sequence in this assay (P35222 2-781 limits assumed): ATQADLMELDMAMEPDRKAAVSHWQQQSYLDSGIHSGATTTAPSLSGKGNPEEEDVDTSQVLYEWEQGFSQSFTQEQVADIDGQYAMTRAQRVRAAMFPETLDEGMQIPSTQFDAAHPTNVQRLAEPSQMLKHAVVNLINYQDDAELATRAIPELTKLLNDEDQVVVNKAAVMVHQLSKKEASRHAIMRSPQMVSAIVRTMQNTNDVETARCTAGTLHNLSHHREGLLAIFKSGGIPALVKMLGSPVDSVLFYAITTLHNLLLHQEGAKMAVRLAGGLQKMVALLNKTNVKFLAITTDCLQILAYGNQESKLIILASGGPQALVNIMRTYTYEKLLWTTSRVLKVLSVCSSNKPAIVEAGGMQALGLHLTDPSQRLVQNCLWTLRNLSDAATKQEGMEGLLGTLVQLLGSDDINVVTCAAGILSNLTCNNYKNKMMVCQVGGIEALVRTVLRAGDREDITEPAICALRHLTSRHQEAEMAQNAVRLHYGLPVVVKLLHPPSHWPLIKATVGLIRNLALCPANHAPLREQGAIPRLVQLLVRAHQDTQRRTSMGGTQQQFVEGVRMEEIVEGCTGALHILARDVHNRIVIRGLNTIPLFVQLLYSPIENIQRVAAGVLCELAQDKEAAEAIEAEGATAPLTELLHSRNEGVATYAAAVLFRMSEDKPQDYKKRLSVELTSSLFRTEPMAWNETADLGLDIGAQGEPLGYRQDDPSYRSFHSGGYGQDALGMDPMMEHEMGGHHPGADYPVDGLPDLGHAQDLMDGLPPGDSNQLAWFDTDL

IC50 | Binder
50 nM | Ac-[αAllylPro]D[Cha][B5(4)]DDALFS[PyrS2″][Phe(2-Cl)][Bta]Q-NH2 (staple 1-4, 4-11) [I-1148]
12 nM | Ac-[αAllylPro]D[Cha][B5(4)]DDLAFT[PyrS2″][Phe(2-Cl)][Bta]S-NH2 (staple 1-4, 4-11) [I-1150]
18 nM | Ac-[αAllylPro]D[Cha][B5(24)]DDAAFS[PyrS2″][Phe(2-Cl)][Bta]L-NH2 (staple 1-4, 4-11) [I-1138]
8 nM | Ac-[αAllylPro]D[Cha][B5(24)]DDAAFS[PyrS2″][Phe(2-Cl)][Bta][hSer]-NH2 (staple 1-4, 4-11) [I-1137]
22 nM | Ac-[αAllylPro]D[Cha][B5(24)]DDAAFL[PyrS2″][Phe(2-Cl)][Bta]T-NH2 (staple 1-4, 4-11) [I-1139]
65 nM | Ac-[αAllylPro]D[Cha][B5(4)]DDLLFT[PyrS2″][Phe(2-Cl)][Bta]S-NH2 (staple 1-4, 4-11) [I-1152]
33 nM | Ac-[αAllylPro]D[Cha][B5(4)]DDAAFL[PyrS2″][Phe(2-Cl)][Bta][dT]-NH2 (staple 1-4, 4-11) [I-1140]
30 nM | Ac-[αAllylPro]D[Cha][B5(4)]DDALFT[PyrS2″][Phe(2-Cl)][Bta]S-NH2 (staple 1-4, 4-11) [I-1151]
10 nM | Ac-[αAllylPro]D[Cha][B5(4)]DDLAFS[PyrS2″][Phe(2-Cl)][Bta]Q-NH2 (staple 1-4, 4-11) [I-1147]

Each binder was assayed against full-length beta-Catenin (Uniprot ID P35222) (Homo sapiens (Human)) (UniProt P35222) (assay: fluorescence polarization competition; 10 nM full-length beta-catenin + 10 nM 5FAM-TCF4(10-53) as competitor probe; peptide titrated).
Target sequence in this assay (P35222 2-781 limits assumed): as above

IC50 | Binder
187 nM | Ac-[αAllylPro]D[tBuAla][B5(5)]D[TfeGA]AAFL[PyrS2″][3Thi][Bta]L-NH2 (staple 1-4, 4-11) [I-1747]

Each binder was assayed against full-length beta-Catenin (Uniprot ID P35222) (Homo sapiens (Human)) (UniProt P35222) (assay: fluorescence polarization competition; full-length beta-catenin, competitor 5FAM-TCF4(10-53) probe).
Target sequence in this assay (P35222 whole entry, one chain of several): as the sequence (P35222 whole entry, one chain of several) above

EC50 | Binder
21 nM | Ac-[αAllylPro]D[Abu][B5]DDAAFN[S8]F[Bta]H-NH2 (staple 1-4, 4-11) [I-575]
69 nM | Ac-[αAllylPro]D[hLeu][B5(5)]DDAAFN[S8]F[Bta]H-NH2 (staple 1-4, 4-11; also: staple isomer, earlier eluting HPLC peak) [I-583]
33 nM | Ac-[αAllylPro]D[hLeu][B5(5)]DDAAFN[S8]F[Bta]H-NH2 (staple 1-4, 4-11) [I-584]

These binders were tested against full-length beta-Catenin (Uniprot ID P35222) (Homo sapiens (Human)) (UniProt P35222) (assay: fluorescence polarization competition, 5FAM-TCF4 10-53 probe on full-length beta-catenin).
Target sequence in this assay (P35222 2-781 limits assumed): as the sequence (P35222 2-781 limits assumed) above

EC50 | Binder
50 nM | Ac-[αAllylPro]D[Cha][B5(4)]DDALFS[PyrS2″][Phe(2-Cl)][Bta]Q-NH2 (staple 1-4, 4-11) [I-1148]
12 nM | Ac-[αAllylPro]D[Cha][B5(4)]DDLAFT[PyrS2″][Phe(2-Cl)][Bta]S-NH2 (staple 1-4, 4-11) [I-1150]
18 nM | Ac-[αAllylPro]D[Cha][B5(24)]DDAAFS[PyrS2″][Phe(2-Cl)][Bta]L-NH2 (staple 1-4, 4-11) [I-1138]
8 nM | Ac-[αAllylPro]D[Cha][B5(24)]DDAAFS[PyrS2″][Phe(2-Cl)][Bta][hSer]-NH2 (staple 1-4, 4-11) [I-1137]
22 nM | Ac-[αAllylPro]D[Cha][B5(24)]DDAAFL[PyrS2″][Phe(2-Cl)][Bta]T-NH2 (staple 1-4, 4-11) [I-1139]
65 nM | Ac-[αAllylPro]D[Cha][B5(4)]DDLLFT[PyrS2″][Phe(2-Cl)][Bta]S-NH2 (staple 1-4, 4-11) [I-1152]
33 nM | Ac-[αAllylPro]D[Cha][B5(4)]DDAAFL[PyrS2″][Phe(2-Cl)][Bta][dT]-NH2 (staple 1-4, 4-11) [I-1140]
30 nM | Ac-[αAllylPro]D[Cha][B5(4)]DDALFT[PyrS2″][Phe(2-Cl)][Bta]S-NH2 (staple 1-4, 4-11) [I-1151]
10 nM | Ac-[αAllylPro]D[Cha][B5(4)]DDLAFS[PyrS2″][Phe(2-Cl)][Bta]Q-NH2 (staple 1-4, 4-11) [I-1147]
